Results: paper PMC3410435 (Structure (London, England : 1993), 2012)

Molecular target: the molecule itself
Assay: SEC

B1: PdeA(R69A) (enzyme, Caulobacter crescentus, UniProt Q9A310 1-555, looked up)
chain: MSFRTGERRIWDATATLEALGAADVALWIWEPETDRLRLNGAARALGLGPLAPECSSAAFRALALPQDAAQAEEVLKPREPGSEVVARFRVRGGETCLWRGVWLEEGVRAAGVVAPETKFSASELCDLTGLLDRRSFLARARERLAQEGTHQLVVADLDRLRRLNEALGHERADLVLAALGSRLAAAFPAQSILGRIGEDEFAVLCQPLGYEPSDVLRSALEQPLRVAGFDIHPTLSIGAVSAEGGLDAPDAAELLRRAELAVEAAAAAGRGGAAAYGRAMETDGLSRLALEADLRGAIGRGEITPYFQPIVRLSTGALSGFEALARWIHPRRGMLPPDEFLPLIEEMGLMSELGAHMMHAAAQQLSTWRAAHPAMGNLTVSVNLSTGEIDRPGLVADVAETLRVNRLPRGALKLEVTESDIMRDPERAAVILKTLRDAGAGLALDDFGTGFSSLSYLTRLPFDTLKIDRYFVRTMGNNAGSAKIVRSVVKLGQDLDLEVVAEGVENAEMAHALQSLGCDYGQGFGYAPALSPQEAEVYLNEAYVDGAAPVKARG
- stoichiometry N: 2
